Results: patent publication EP4703474A1, “ANTI-LRRC15 ANTIBODY” (priority 2023, dated 2024)

Assays:
[1] = test system: Head and neck carcinoma cell line Detroit 562; assay: In vivo antitumor effect, Detroit 562 subcutaneous transplant model; conditions: 0.4 mg/kg, tail vein, on Day 10, female SCID mice
Method: (§1) The antitumor effects of the antibody-drug conjugates were evaluated by using animal models in which cells of a human tumor cell line had been transplanted into immunodeficient mice, or cells of a mouse tumor cell line had been transplanted into immunocompetent mice. 4 to 6 Week-old SCID mice (CB17/Icr-Prkdc[scid]/CrlCrlj, Jackson Laboratory Japan, Inc.), NSG mice (NOD.Cg-Prkdcscid Il2rgtm1Wjl/SzJ, Jackson Laboratory Japan, Inc.), or B6J mice (C57BL/6J, Jackson Laboratory Japan, Inc.) were habituated for 3 days or more under SPF conditions before experimental use. The mice were fed with sterilized solid feed and given sterilized tap water. The major and minor diameters of the transplanted tumors were measured twice a week with an electronic digital caliper (Mitutoyo Corporation), and the estimated tumor volume was calculated using the following formula. Estimated tumor volume (mm^3) = 1/2 × major diameter (mm) × [minor diameter (mm)]^2 All antibody-drug conjugates were diluted with ABS and administered into the tail vein at doses shown in each Example. In addition, ABS (vehicle) or control hIgG-PBD prepared in Reference Example 4 was administered as the control group, in a similar manner. 5 to 6 Mice were used per group in the experiment. To analyze the LRRC15 expression in mouse tumor models, immunohistochemical staining of LRRC15 was performed. […]

[2] = test system: Pancreatic carcinoma cell line BxPC-3 and human adipose tissue-derived mesenchymal stem cells; assay: In vivo antitumor effect, BxPC-3 co-transplanted with mesenchymal stem cells; conditions: BxPC-3 and MSC at 1:3; 0.4 mg/kg, tail vein, on Day 27; female SCID mice
Method: as §1

B1: H02L01-V1-PBD (conjugate)
heavy: EVQLVESGGGLVQPGGSLRLSCAASGFTFRDYYMAWVRQAPGKGLEWVSSIGFDESRTYYADSVKGRFTISRDDSKNTLYLQMNSLRAEDTAVYYCARHGVSKYSGDNWFAYWGQGTLVTVSSASTKGPSVFPLAPSSKSTSGGTAALGCLVKDYFPEPVTVSWNSGALTSGVHTFPAVLQSSGLYSLSSVVTVPSSSLGTQTYICNVNHKPSNTKVDKKVEPKSCDKTHTCPPCPAPEAAGGPSVFLFPPKPKDTLMISRTPEVTCVVVDVSHEDPEVKFNWYVDGVEVHNAKTKPREEQYNSTYRVVSVLTVLHQDWLNGKEYKCKVSNKALAAPIEKTISKAKGQPREPQVYTLPPSREEMTKNQVSLTCLVKGFYPSDIAVEWESNGQPENNYKTTPPVLDSDGSFFLYSKLTVDKSRWQQGNVFSCSVMHEALHNHYTQKSLSLSPGK
light: DIQMTQSPSSLSASVGDRVTITCKSSQGLLYSGDQKNYLAWYQQKPGKAPKLLIYWASTRQSGVPSRFSGSGSGTDFTLTISSLQPEDFATYYCQQYYDPPYTFGQGTKVEIKRTVAAPSVFIFPPSDEQLKSGTASVVCLLNNFYPREAKVQWKVDNALQSGNSQESVTEQDSKDSTYSLSSTLTLSKADYEKHKVYACEVTHQGLSSPVTKSFNRGEC
antitumor effect (estimated tumor volume) [1]: antitumor activity higher than that of the vehicle and control hIgG-PBD | antitumor effect (estimated tumor volume) [2]: antitumor activity higher than that of the vehicle and control hIgG-PBD
